Source: article PMC8299219 (Cell, 2021)

B1: G32M5 (antibody, V domains shown)
VH: EVQLLESGGGLVQPGGSLRLSCAASGFTFSSYAMSWVRQAPGKGLEWVSGISASGGSTYYADSVKGRFTISRDNSKNTLYLQMNSLRAEDTAVYYCAKDGGPYSKGPYHYYGMDVWGQGTTVTVSS
VL: QSVLTQPPSVSAAPGQKVTISCSGSSSNIGNNYVSWYQQLPGTAPKLLIYDNNKRPSGIPDRFSGSKSGTSATLGITGLQTGDEADYYCGTWDSSLSAYVFGTGTKVTVL
B2: C30A11 (antibody, V domains shown)
VH: QVQLVQSGAEVKKPGASVKVSCKASGYTFTGYYIHWVRQAPGQGLEWMGWINPNSGVTNYAQKFQGWVTMTRDTSISTAYMELSRLKSDDTAVYYCAREMQQLEGYYYYAMDVWGQGTTVTVSS
VL: not shown
B3: C83B8 (antibody, V domains shown)
VH: QVQLVQSGAEVKKPGSSVKVSCKASGGTFSSYAISWVRQAPGQGLEWMGGIIPIFGTANYAQKFQGRVTITADESTSTAYMELSSLKSEDTAVYYCASTSYYDSSGYYLDYWGQGTLVTVSS
VL: EIVLTQSPATLSLSPGERATLSCRASQSVSSFLAWYQQKPGQAPRLLIYDASNRATGIPARFSGSGSGTDFTLTISSLEPEDFAVYYCQQRSNWPPKITFGQGTRLEIK
B4: C83A10 (antibody, V domains shown)
VH: QVQLVQSGAEVKKPGSSVKVSCKASGGTFSSYAISWVRQAPGQGLEWMGGIIPIFGTAKYAQKFQGRVTITADESTSTAYLELSSLRSEDTAVYYCARVGPYDSSGYYYDYWGQGTLVTVSS
VL: EIVLTQSPATLSLSPGERATLSCRASQSVSSYLAWYQQKPGQAPRLLIYDASNRATGIPARFSGSGSGTDFTLTISSLEPEDFAVYYCQQRSNWPPMYTFGQGTKLEIK
B5: C102A1 (antibody, V domains shown)
VH: QVQLVQSGAEVKKPGSSVKVSCEASGGTFSSYAISWVRQAPGQGLEWMGGIIPIFGTANYAQKFQGRLTITADESTSTAFMELSSLRSEDTAVYYCARTYYYDSSGYSHDYWGQGTLVTVSS
VL: EIVLTQSPATLSLSPGERATLSCRASQSLSSFLAWYQQKPGQAPRLLIYDASNRATGIPARFSGSGSGTDFTLTISSLEPEDFAVYYCQQRTNWPPRITFGQGTRLEIK
B6: C163D1 (antibody, V domains shown)
VH: QVQLVQSGAEVKKPGSSVKVSCKASGGTFSSYAISWVRQAPGQGLEWMGGIIPIFGTANYAQKFQGRVTITADESTSTAYMELSSLRSEDTAVYYCARVSGYDSSGYSPDYWGQGTLVTVSS
VL: EIVLTQSPATLSLSPGERATLSCRASQSVSSYLAWYQQKPGQAPRLLIYDASNRATGIPARFSGSGSGTDFTLTISSLEPEDFAVYYCQQRSNWPPRLTFGGGTKVEIK
B7: C12I9 (antibody, V domains shown)
VH: QVQLVQSGAEVKKPGASVKVSCKASGYTFTGYYMHWVRQDPGQGLEWMGWINPNSGVTNYAQKFQGWVTMTRDTSISTAYMELSRLKSDDTAVYYCAREVGAVAGTFYYGLDVWGQGTTVTVSS
VL: QSALTQPRSVSGSPEQSVAISCTGTSSDVGGNNYVSWYQQHPGKAPKLMIYDVSKRPSGVPDRFSGSKSGNTASLTISGLQAEDEADYYCCSYAGSYTFGVVFGGGTKLTVL
B8: C12B2 (antibody, V domains shown)
VH: QVQLVQSGAEVKKPGSSVKVSCKASGGTFSSYAISWVRQAPGQGLEWMGGIIPIFGTANYAQKFQGRVTITADESTSTAYMELSSLRSEDTAVYYCARMDYYDSSGYYLDYWGQGTLVTVSS
VL: EIVLTQSPATLSLSPGERATLSCRASQSVSNFLAWYQQKPGQAPRLLIYDASNRATGIPARFSGSGSGTDFTLTISSLEPEDFAVYYCLQRSNWPPRLTFGGGTKVEIK
B9: C107A2 (antibody, V domains shown)
VH: EVQLVESGGGLVQPGGSLRLSCAASEFTVNNNYMSWVRQAPGKGLEWVSIIYSGGSTYYADSVKGRFTISRDNSKNTLYLQMNSLRAEDTAVYYCARNHITMVRGVIKYQDYWGQGTLVTVSS
VL: not shown
B10: G32R10 (antibody, V domains shown)
VH: EVQLLESGGGLVQPGGSLRLSCAASGFTFSRYAMSWVRQAPGKGLEWVSAISGSGGSTYYSDSVEGRFTISRDNSKNTLYVQMNSLRAEDTAVYYCAKDAGFIPLYYFDYWGQGTLVTVSS
VL: EIVMTQSPVTLSVSPGERATLSCRASQSVSSNLAWYQQKPGQAPRLLIYGASTRATGIPARFSGSGSGTEFTLIISSLQSEDFAVYNCQQYNNWPWTFGQGTKVEIK
B11: C41N6 (antibody, V domains shown)
VH: QVQLVESGGGVVQPGGSLRLSCAASGFTFSSYGMHWVRQAPGKGLEWVAFIRYDGSNNYYADSVKGRFTISRHNSKNTLYLQMNSLRAEDTAVYYCAKVTITIFGVVIYGMDVWGQGTTVTVSS
VL: not shown
B12: C81E2 (antibody, V domains shown)
VH: not shown
VL: DIQMTQSPSSLSASVGDRVTITCRASQGISNYLAWYQQKPGKVPKLLIYAASTLQSGVPSRFSGSGSGTDFTLTISSLQPEDVATYYCQKYNSASPLTFGGGTKVEIK
B13: C81D9 (antibody, V domains shown)
VH: QVQLVESGGGVVQPGRSLRLSCAASGFTFSSYAMHWVRQAPGKGLEWVAVISYDGSNKYYADSVRGRFTISRDNSKNTLYLQMNSLRAEDTAVYYCARAWGGSYRGGLDYWGQGTLVTVSS
VL: DIQMTQSPSSLSASVGYRVTITCRASQSISSWLAWYQQKPGKAPKLLIYKASSLESGVPSRFSGSGSGTEFTLTISSLQPDDFATYYCQQYNSYWTFGQGTKVEIK
B14: G32M4 (antibody, V domains shown)
VH: QVQLVESGGGVVQPGRSLRLSCAASGFTFRSYAMHWVRQAPGKGLEWVAVISYDGSNKYYADSVKGRFTISRDNSKNTLYLQMNSLRAEDTAVYYCAKSYSGSYLAAFDIWGQGTMVTVSS
VL: EIVLTQSPGTLSLSPGERATLSCRASQIFSSSYLAWYQQKPGQAPRLLIYGASSRATGIPDRFSGSGSGTDFTLTISRLEPEDFAVYYCQQYGSSITFGQGTRLEIK
B15: C30A5 (antibody, V domains shown)
VH: QVQLVESGGGVVQPGRSLRLSCAASGFTFSTYAMHWVRQAPGKGLEWVAVISYDGSNKYYADSVKGRFTISRDNSKNTLYLQLNSLRAEDTAVYYCAKSGSGHYFAPFDYWGQGTLVTVSS
VL: not shown
B16: C163E6 (antibody, V domains shown)
VH: QVQLVESGGGVVQPGRSLRLSCAASGFTFNTYAVYWVRQAPGKGLEWVAVISYDGINKYYADSVKGRFTISRDNSKNTLYLQMNSLRPEDTAVYYCARVKSGSYKGCFDYWGQGTLVTVSS
VL: not shown
B17: C163E11 (antibody, V domains shown)
VH: QVQLVESGGGVVQPGRSLRLSCAASGFTFSIYAIHWVRQAPGKGLEWVAVVSYDGSNKYYADSVRGRFTISRDNSKNTLYLQMNSLRADDTAVYYCARDSAGGYSYLFDYWGQGTLVTVSS
VL: not shown
B18: C107A1 (antibody, V domains shown)
VH: QVQLVESGGGVVQPGRSLRLSCAASGFTFSSYGMHWVRQAPGKGLEWVAVISYDGSNKYYADSVKGRFTISRDNSKNTLYLQMNSLRAEDTAMYYCAKDGSGSYSWFDPWGQGTLVTVSS
VL: EIVMTQSPATLSVSPGERATLSCRASQSVSSNLAWYQQKPGQAPRLLIYGASTRATGIPARFGGSGSGTEFTLTISSLQSEDFAVYYCQQYNNGFTFGPGTKVDIK

biological target: SARS-CoV-2 S ectodomain trimer, prefusion-stabilized, 2P variant (Wrapp et al., 2020) (SARS-CoV-2, Wuhan-Hu-1, UniProt P0DTC2, stabilised)

**Q.** Does B1 bind?
**A.** binds

**Q.** Does B2 bind?
**A.** binds

**Q.** Does B3 bind?
**A.** binds

**Q.** Does B4 bind?
**A.** binds

**Q.** Does B5 bind?
**A.** binds

**Q.** Does B6 bind?
**A.** binds

**Q.** Does B7 bind?
**A.** binds

**Q.** Does B8 bind?
**A.** binds

**Q.** Does B9 bind?
**A.** binds

**Q.** Does B10 bind?
**A.** binds

**Q.** Does B11 bind?
**A.** binds

**Q.** Does B12 bind?
**A.** binds

**Q.** Does B13 bind?
**A.** binds

**Q.** Does B14 bind?
**A.** binds

**Q.** Does B15 bind?
**A.** binds

**Q.** Does B16 bind?
**A.** binds

**Q.** Does B17 bind?
**A.** binds

**Q.** Does B18 bind?
**A.** binds
